Laboratory results as given in patent publication US20140235490A1.

Target: Firefly luciferase fragment FFL (265-550) (Photinus pyralis) [luciferase: P08659]
Assay: cell-based or functional assay

Firefly luciferase fragment FFL (1-478), sequence (P08659 1-478): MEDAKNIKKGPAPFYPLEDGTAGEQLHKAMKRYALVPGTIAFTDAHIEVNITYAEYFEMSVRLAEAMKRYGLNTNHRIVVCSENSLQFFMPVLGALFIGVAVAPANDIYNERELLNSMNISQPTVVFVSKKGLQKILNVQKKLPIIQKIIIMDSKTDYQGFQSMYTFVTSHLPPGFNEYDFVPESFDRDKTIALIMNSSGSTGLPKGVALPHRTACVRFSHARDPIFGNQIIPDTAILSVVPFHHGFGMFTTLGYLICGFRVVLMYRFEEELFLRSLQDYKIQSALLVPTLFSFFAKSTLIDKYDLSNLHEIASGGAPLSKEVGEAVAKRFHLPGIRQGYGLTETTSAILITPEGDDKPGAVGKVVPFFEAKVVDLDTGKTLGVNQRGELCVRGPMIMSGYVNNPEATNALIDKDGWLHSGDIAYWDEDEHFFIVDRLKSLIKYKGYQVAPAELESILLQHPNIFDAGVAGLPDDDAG
Firefly luciferase fragment FFL (265-550) (Photinus pyralis) [luciferase: P08659], sequence (P08659 265-550): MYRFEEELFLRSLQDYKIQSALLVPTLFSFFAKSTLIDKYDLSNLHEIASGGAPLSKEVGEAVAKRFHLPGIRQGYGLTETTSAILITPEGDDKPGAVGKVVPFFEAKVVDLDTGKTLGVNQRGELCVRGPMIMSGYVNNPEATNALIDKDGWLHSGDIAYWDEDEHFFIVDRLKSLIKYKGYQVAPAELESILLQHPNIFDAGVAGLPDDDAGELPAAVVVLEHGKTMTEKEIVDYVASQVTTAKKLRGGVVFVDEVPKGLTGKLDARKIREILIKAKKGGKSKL

For “Firefly luciferase fragment FFL (1-478) (from UniProt P08659 1-478)”, the luciferase activity after recombination of the fragments was < 4%.
